Test results published in article PMC6849348, “Theranostic Application of a Novel G-Quadruplex-Forming DNA Aptamer Targeting Malate Synthase of Mycobacterium tuberculosis” (Molecular Therapy. Nucleic Acids, 2019).

molecular target: malate synthase (MS, GlcB) (Mycobacterium tuberculosis) (UniProt P9WK17); assay: SPR
Sequence (P9WK17 whole entry): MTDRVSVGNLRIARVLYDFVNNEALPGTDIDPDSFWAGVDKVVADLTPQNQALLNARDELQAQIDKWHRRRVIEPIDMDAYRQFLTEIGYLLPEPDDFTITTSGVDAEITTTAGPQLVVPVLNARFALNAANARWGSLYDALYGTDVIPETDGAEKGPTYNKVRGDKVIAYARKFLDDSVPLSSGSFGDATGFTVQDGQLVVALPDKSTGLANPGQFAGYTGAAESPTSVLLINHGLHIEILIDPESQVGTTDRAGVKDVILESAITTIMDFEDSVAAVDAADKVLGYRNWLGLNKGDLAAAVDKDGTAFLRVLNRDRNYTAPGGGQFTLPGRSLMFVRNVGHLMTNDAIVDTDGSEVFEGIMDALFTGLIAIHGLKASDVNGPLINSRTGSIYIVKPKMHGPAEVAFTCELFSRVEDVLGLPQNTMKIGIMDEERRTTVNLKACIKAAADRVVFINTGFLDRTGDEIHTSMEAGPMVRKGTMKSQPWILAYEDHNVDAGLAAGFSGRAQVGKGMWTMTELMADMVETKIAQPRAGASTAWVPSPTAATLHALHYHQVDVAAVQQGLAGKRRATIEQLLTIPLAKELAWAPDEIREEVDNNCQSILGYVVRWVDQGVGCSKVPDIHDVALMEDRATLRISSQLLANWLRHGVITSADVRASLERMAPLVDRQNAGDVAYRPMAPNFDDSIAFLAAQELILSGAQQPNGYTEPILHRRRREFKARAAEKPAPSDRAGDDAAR

Compared with “GGACCAGGTGAGTGGATGCGGGTGCGGGTGGGGGTGAGGGGGGG [MS4]”, “GCAGAGAGAGAGAAAGTGAGAAGGGCGGGGGGGAGAGGGTGGGG [MS5]” is 270-fold higher in Kd: 9.9 nM for the first, 2700 nM for the second. The first binds more tightly here.

Going from “GGTGGGATGGGGGGGGGAGGGTAGGGTGTGCAAGTAGAGGGTC [MS6]” to “GGGTTGTAAGAGGGAGCTGGGAGGGGTCGGGGGGGGGGGTGGC [MS20]”, the Kd rises from 0.28 nM to 910 nM (3200-fold). The first binds more tightly here.
